The source of these data is patent US20130288979A1 (CENTRE NATIONAL DE LA RECHERCHE SCIENTIFIQUE CNRS, published 2013).

In assay [1] the target is T1, His-tagged intracellular region of Fas receptor (UniProt P25445 191-335, limits assumed).
T1 construct: domain: intracellular region; Bought reagent (Sigma); also called intra-cellular region of the Fas receptor (Sigma); not shown: His tag
T1 sequence (looked up): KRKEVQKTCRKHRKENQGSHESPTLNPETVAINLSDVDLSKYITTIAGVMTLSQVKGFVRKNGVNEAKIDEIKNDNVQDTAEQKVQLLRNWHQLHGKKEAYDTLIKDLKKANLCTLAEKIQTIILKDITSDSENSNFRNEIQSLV
Nature of the assay: SPOT pepscan of DAXX (15mers, shift 3) on membrane, probed with His-tagged Fas intracellular region, anti-His(mouse)/anti-mouse-HRP, enzyme-linked blot.

In assay [2] the target is T1, His-tagged intracellular region of Fas …. Nature of the assay: SPR (Biacore), mean of three experiments ± SD. Here is the method: Additionally, the potential interaction of the fragments with the intracellular region of the Fas receptor was cross-validated by measuring the binding affinities (Kd) using the surface plasmon resonance (SPR) technique (Biacore Life Science, Sweden).
All experiments are performed on a Biacore instrument. For each condition, the mean value of three independent experiments and the corresponding standard deviation are plotted.
In general terms: In SPR one partner is held on a chip, and binding of the other changes the refractive index at the surface.

Usually Kd stands for the equilibrium constant for the complex coming apart.

Non-standard residues stand in square brackets, D forms with d. No end group written: not given here. Ahx = NCCCCCC(=O)O

B1: ncDAXXp (peptide)
peptide: AKLYVYINELCTVLK
notes: Negative-control DAXX 15mer; the text uses it as Tat-ncDAXXp in the cell assays; also called circled spot at the start of row 41 of the DAXX pepscan
Regarding B1, in assay [1], the binding result is on record as “no binding”.

B2: Pip2b-DAXXp (peptide)
peptide: R[Ahx]RR[Ahx]RR[Ahx]RIHILFQN[dR]RMKWHKKKSRKEKKQTGSGPLG-NH2
modifications: not fully specified
notes: 39 residues; holds non-natural residues in the Pip2b part
As for B2, binding in assay [2] was put at a Kd of 0.7 µM.

B3: mDAXXp (peptide)
peptide: KRFRKEKKQLGSGLLG-NH2
modifications: not fully specified; printed as KRFRKEKKQLGSGLLG-NH2
notes: also called mouse homolog of human DAXXp; murine DAXXp
In turn, B3 had a dissociation constant (Kd) in assay [2] of 252 µM.
KKSRKEKKQTGSGPLG-NH2 (also called DAXX peptide) [DAXXp]: binding in assay [2] was put at a Kd of 333 µM.

B4: Tat-DAXXp (peptide)
peptide: GRKKRRQRRRPPQKKSRKEKKQTGSGPLG-NH2
notes: Conjugate of the Tat cell penetrating peptide (N-terminal) and DAXXp
On to B4, for which, in assay [2], binding was put at a Kd of 13 µM.
